In publication PMC4066763, “Programmable DNA-binding proteins from Burkholderia provide a fresh perspective on the TALE-like repeat domain”:
Residue numbers refer to the chain shown, from its start.

B1: BEBat1 G-0, MST (dsDNA)
DNA 1: TAGACGAAGAGAAGCAAAGACGTTATATGC
DNA 2: GCATATAACGTCTTTGCTTCTCTTCGTCTA
B2: BEBat3, EMSA (dsDNA)
DNA 1: TAGACATAGATTATTATATTTGTAACAAGTAAATGC
DNA 2: GCATTTACTTGTTACAAATATAATAATCTATGTCTA
B3: BEBat1 A-0, MST (dsDNA)
DNA 1: B1 DNA 1 with G6A
DNA 2: B1 DNA 2 with C25T
B4: BEBat1 (T0), EMSA (dsDNA)
DNA 1: B1 DNA 1 with G6T
DNA 2: B1 DNA 2 with C25A
B5: BEBat1 T-0, MST (dsDNA)
DNA 1: B1 DNA 1 with G6T
DNA 2: B1 DNA 2 with C25A
B6: BEBat1 C-0, MST (dsDNA)
DNA 1: B1 DNA 1 with G6C
DNA 2: B1 DNA 2 with C25G
B7: BEBat2, EMSA (dsDNA)
DNA 1: TAGACTTTGTTGAAAAGTTGTAAAAACATTATATGC
DNA 2: GCATATAATGTTTTTACAACTTTTCAACAAAGTCTA

Columns and labels:
[1] = target: T1, Bat1 (BurrH) (Burkholderia rhizoxinica HKI 0454, UniProt E5AV36 1-771); experiment: MST; 10 mM MgCl2; EMSA: 15 mM Tris-Cl, 75 mM KCl, 2.5 mM DTT, 0.063% NP-40, 62.5 ng/ul dI.dC, 0.125 mg/ml BSA, 6.25% glycerol, 6.25 mM MgCl2, 0.125 mM EDTA, room temp, gel at 4 C; MST: 20 mM Tris pH 7.4, 150 mM NaCl, 10 mM MgCl2, 0.05% Tween, room temp, 100 nM labelled Bat1; settings: protein: recombinant; tags: N-terminal His; label: none (stated unlabelled)
T1 sequence: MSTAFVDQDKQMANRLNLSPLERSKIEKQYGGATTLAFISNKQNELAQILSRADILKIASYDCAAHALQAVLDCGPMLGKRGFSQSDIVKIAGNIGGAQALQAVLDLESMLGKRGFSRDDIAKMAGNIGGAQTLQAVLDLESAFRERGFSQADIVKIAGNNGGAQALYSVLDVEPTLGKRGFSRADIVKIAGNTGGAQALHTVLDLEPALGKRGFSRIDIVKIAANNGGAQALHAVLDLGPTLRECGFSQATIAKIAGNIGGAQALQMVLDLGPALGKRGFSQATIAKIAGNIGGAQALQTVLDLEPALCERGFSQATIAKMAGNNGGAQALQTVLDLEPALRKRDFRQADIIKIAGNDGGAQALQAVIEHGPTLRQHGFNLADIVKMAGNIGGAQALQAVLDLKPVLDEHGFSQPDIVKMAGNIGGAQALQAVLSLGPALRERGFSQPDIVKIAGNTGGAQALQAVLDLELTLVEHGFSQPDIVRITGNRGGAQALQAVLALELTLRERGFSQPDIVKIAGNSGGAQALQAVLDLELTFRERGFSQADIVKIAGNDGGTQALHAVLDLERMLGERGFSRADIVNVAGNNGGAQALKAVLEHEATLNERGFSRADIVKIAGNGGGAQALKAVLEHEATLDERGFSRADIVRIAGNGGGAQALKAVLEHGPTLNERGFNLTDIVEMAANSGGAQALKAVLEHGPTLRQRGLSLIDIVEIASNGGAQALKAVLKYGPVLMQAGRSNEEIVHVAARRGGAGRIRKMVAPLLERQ

[2] = target: T2, Bat3 (Burkholderia rhizoxinica HKI 0454, UniProt E5AW43 1-311); experiment: EMSA; 100 nM protein, 10 nM DNA, poly dI.dC; EMSA: 15 mM Tris-Cl, 75 mM KCl, 2.5 mM DTT, 0.063% NP-40, 62.5 ng/ul dI.dC, 0.125 mg/ml BSA, 6.25% glycerol, 6.25 mM MgCl2, 0.125 mM EDTA, room temp, gel at 4 C; MST: 20 mM Tris pH 7.4, 150 mM NaCl, 10 mM MgCl2, 0.05% Tween, room temp, 100 nM labelled Bat1; settings: protein: recombinant; tags: N-terminal His; label: 5' Cy5 forward strand
T2 sequence: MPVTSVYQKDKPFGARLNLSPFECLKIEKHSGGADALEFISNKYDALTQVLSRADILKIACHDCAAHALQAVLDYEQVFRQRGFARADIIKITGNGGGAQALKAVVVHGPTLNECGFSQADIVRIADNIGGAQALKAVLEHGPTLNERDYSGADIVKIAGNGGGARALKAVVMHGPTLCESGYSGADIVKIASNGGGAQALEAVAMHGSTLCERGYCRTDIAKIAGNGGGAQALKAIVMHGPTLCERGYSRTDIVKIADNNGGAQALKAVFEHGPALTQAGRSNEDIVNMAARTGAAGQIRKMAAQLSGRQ

[3] = target: T1, Bat1 (BurrH); experiment: as above; settings: protein: recombinant; tags: N-terminal His; label: 5' Cy5 forward strand
[4] = target: T3, Bat2 (Burkholderia rhizoxinica HKI 0454, UniProt E5AW45 1-997); experiment: as above; settings: protein: recombinant; tags: N-terminal His; label: 5' Cy5 forward strand
T3 sequence: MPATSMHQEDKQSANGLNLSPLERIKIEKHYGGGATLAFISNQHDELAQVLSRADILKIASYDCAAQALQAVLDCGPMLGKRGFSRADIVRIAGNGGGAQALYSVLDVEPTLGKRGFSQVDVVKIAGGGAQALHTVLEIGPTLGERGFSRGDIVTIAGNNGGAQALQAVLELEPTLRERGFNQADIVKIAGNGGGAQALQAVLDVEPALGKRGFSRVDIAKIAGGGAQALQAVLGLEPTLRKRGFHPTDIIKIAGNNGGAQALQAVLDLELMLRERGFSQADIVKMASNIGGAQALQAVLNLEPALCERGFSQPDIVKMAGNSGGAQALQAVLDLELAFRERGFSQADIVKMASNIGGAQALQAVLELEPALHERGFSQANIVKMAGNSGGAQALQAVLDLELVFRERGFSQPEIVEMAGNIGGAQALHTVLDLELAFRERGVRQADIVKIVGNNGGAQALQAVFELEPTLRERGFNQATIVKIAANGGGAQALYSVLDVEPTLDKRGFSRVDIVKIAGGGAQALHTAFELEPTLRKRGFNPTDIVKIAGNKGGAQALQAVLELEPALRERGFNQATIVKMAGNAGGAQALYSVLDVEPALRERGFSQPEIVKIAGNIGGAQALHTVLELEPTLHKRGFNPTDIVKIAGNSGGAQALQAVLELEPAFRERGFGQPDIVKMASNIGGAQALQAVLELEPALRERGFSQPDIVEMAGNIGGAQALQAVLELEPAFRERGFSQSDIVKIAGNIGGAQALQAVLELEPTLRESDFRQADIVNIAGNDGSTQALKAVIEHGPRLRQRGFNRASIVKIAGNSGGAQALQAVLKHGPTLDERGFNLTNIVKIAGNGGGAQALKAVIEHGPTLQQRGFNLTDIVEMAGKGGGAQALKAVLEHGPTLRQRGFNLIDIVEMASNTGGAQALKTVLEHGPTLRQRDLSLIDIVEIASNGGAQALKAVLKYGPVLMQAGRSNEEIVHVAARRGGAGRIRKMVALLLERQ

| Binder | binding result [1] | binding result [2] | binding result [4] | other results |
| --- | --- | --- | --- | --- |
| B1 | binds | – | – | – |
| B2 | – | no binding | no binding | binding result [3]: no binding |
| B3 | binds | – | – | – |
| B4 | – | no binding | no binding | – |
| B5 | – | – | – | Kd [1]: 132 nM |
| B6 | binds | – | – | – |
| B7 | – | no binding | binds | binding result [3]: no binding |
